# Entries after “also recorded” stand apart in the source; their conditions may differ.
# B1: full length FGF7: Fibroblast growth factor 7 (keratinocyte growth factor), full length ligand for FGFR2 IIIb isoform, used as comparator (protein)
# chain: CNDMTPEQMATNVNCSSPERHTRSYDYMEGGDIRVRRLFCRTQWYLRIDKRGKVKGTQEMKNNYNIMEIRTVAVGIVAIKGVESEFYLAMNKEGKLYAKKECNEDCNFKELILENHYNTYASAKWTHNGGEMFVALNQKGIPVRGKKTKKEQKTAHFLPMAIT
# Tests used:
# Type in all cases: in vivo, mice
# [1] = target: T1, FGFR2IIIb (Mus musculus, UniProt P21803); experiment: pFRS2α immunostaining of bladder urothelium after subcutaneous ligand; details: for onset of pFRS2α staining (initial staining observed) after administration: mouse, in vivo
# T1 construct: from tissue; host or cells: bladder urothelium of FVB/N mice (in vivo)
# Experimental: (§1) Uninjured mice were treated with 0.2 mL of 10% DMSO, 40 mg/kg FGF7-p, or […] full length FGF7 (n=2 mice per group, mice were about 25 g in weight) administered by subcutaneous injection. At the indicated times (Tables 1 and 2, FIGS. 1 and 2) bladders were harvested and immunostained for pFRS2α and pAKT, markers of urothelial protection. Immunostaining of bladder tissues from each group was repeated. Tables 1, 3, and 4 show the staining pattern for pFRS2α and pAKT over time in mice treated with full length FGF7.
# (§2) After FGF7 binds to FGFR2IIIb, pFRSα appears first followed by pAKT. Activation of pAKT correlates with the anti-apoptotic/cytoprotective effects of FGF7 in the bladder urothelium.
# (§3) Mice treated with DMSO control, full length FGF7, or FGF7-p were analyzed for activation of FGFR2IIIb and pAKT. Phosphorylated FRS2α and AKT levels were examined by immunostaining. After administration of full length FGF7, initial pFRS2α staining was observed as early as 15 hours later and pAKT staining was observed by 30 hours and peaked at 48 hours (see Tables 1-4 above). 48 hours after administration of 20 mg/kg or 40 mg/kg FGF7-p samples, strong FRS2α staining was observed.
# [2] = target: T1, FGFR2IIIb; experiment: pAKT immunostaining of bladder urothelium after subcutaneous ligand; details: for pAKT staining: uninjured mice, full length FGF7 5 mg/kg, FGF7-p 40 mg/kg
# Experimental: as §1, §2, §3
# To assess whether pATK expression was also increase in FGF7-p treated mice, bladders were analyzed for pATK staining at 72 hours. To confirm pAKT staining was robust in bladder of FGF7-p of treated mice at 72 hours, additional staining for DMSO and FGF7-p (40 mg/kg) treated animals at 72 hours and staining on old samples from full length FGF7-treated samples (5 mg/kg) at 30 hours, 48 hours and 96 hours (n=2 mice per group) was performed. […] Further, robust pAKT signal was seen throughout the urothelium.
# [3] = test system: bladder urothelium; experiment: cyclophosphamide-induced urothelial injury and apoptosis (H&E, TUNEL)
# Experimental: FVB/N mice were administered subcutaneous doses 5 mg/kg, 20 mg/kg, 40 mg/kg of FGF7-p, 5 mg/kg of full length FGF7, or 10% DMSO alone (vehicle). After 24 hours, 150 mg/kg of cyclophosphamide was administered to the mice. Mice were the sacrificed and bladder tissues examined for signs of urothelial injury at various times.
# (§4) Mice were administered two doses of 20 mg/kg of subcutaneous (SQ) FGF7-p (or 10% DMSO vehicle) at 72 hours and 48 hours prior to intraperitoneal (IP) injection of 150 mg/kg cyclophosphamide (n=3 female mice per group). Mice were sacrificed and bladders were harvested 24 hours after cyclophosphamide injection. The bladders were fixed in 4% paraformaldehyde in phosphate buffered saline and embedded in paraffin. The paraffin embedded bladders were then serially sectioned with a microtome. Hematoxylin and eosin staining was performed on the sections.
# [4] = test system: pAKT; experiment: pAKT immunostaining of urothelium after cyclophosphamide; details: two SC doses of 20 mg/kg at 72 and 48 hours prior to cyclophosphamide, 24 hours after cyclophosphamide
# [5] = test system: pS6; experiment: phosphorylated p70S6 kinase (pS6) immunostaining of urothelium after cyclophosphamide; details: two SC doses of 20 mg/kg at 72 and 48 hours prior to cyclophosphamide; 24 hours after cyclophosphamide; versus DMSO
# [6] = test system: pBAD; experiment: phosphorylated BAD (pBAD) immunostaining of urothelium after cyclophosphamide; details: two SC doses of 20 mg/kg at 72 and 48 hours prior to cyclophosphamide, 24 hours after cyclophosphamide
# Experimental: as §4
# [7] = test system: bladder urothelium; experiment: radiation-induced bladder urothelial apoptosis (TUNEL); details: two doses 20 mg/kg SQ at 72 and 48 hours prior to 10 Gray radiation, one day later
# Experimental: The ability of FGF7p to inhibit radiation injury as assesses. Two doses of FGF7p (20 mg/kg SQ) or 2.5% DMSO/PBS vehicle was administered to anesthetized female mice (N=2) at 72 hours and 48 hours prior to exposing the mice to 10 Gray (1000 rads) radiation. Instead of directly exposing bladders to irradiation, we transurethrally filled bladders with 300 μL of saline and focused the radiation beam over the bladder bulge on the depilated abdominal wall. One day later, we noted many TUNEL+ urothelial apoptotic cells in the vehicle-treated mice (FIG. 4, left panel). […] Thus, similar to KGF, systemic FGF7p inhibited or blocked radiation-induced apoptosis.
# [8] = two SC doses of 20 mg/kg at 72 and 48 hours prior to IP 150 mg/kg cyclophosphamide, 24 hours after cyclophosphamide
# T1 sequence (P21803 22-707 isoform P21803-2 limits assumed): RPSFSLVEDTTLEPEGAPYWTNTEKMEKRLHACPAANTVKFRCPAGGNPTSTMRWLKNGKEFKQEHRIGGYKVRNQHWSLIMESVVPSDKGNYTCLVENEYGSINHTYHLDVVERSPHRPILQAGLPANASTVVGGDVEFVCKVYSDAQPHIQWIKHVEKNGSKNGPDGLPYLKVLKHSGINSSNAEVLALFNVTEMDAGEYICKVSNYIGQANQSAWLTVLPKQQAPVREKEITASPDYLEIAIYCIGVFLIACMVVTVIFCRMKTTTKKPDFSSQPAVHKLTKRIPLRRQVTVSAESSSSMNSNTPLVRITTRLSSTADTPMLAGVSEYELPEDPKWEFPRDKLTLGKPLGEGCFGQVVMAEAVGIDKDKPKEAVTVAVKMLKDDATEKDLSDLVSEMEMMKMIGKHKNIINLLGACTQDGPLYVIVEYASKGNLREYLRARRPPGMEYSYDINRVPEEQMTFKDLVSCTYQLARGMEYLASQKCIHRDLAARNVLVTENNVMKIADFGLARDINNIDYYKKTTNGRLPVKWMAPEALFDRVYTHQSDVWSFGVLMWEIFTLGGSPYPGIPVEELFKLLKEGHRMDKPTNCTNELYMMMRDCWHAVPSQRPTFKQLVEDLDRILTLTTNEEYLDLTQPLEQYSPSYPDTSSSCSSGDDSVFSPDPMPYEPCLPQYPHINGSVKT
Molecule,"pFRS2α staining ([1]; 24 h after SC dose, uninjured mice, full length FGF7 5 mg/kg, FGF7-p 40 mg/kg)",pFRS2α staining ([1]; 48 hours after administration of 5 mg/kg),pFRS2α staining ([1]; 48 hours after administration of 20 mg/kg),onset of pFRS2α staining (initial staining observed) after administration [1],pAKT staining ([2]; 24 h after SC dose),pAKT staining ([2]; 48 h after SC dose),pAKT staining ([2]; 72 h after SC dose),"protection against urothelial apoptosis ([3]; single SC dose 5, 20 or 40 mg/kg 24 hours before 150 mg/kg cyclophosphamide, at 48 hours, versus DMSO alone)","urothelial apoptosis, TUNEL staining [3, 8]","urothelial injury, hematoxylin and eosin staining [3, 8]",pAKT urothelial staining [4],pS6 urothelial staining [5],pBAD urothelial staining [6],"radiation-induced urothelial apoptosis, TUNEL staining [7]","pAKT staining first observed after administration ([2]; mouse, in vivo) [hours]","peak of pAKT staining after administration ([2]; mouse, in vivo) [hours]"
"YASAKWTHNGGEMFVALNQ (listed as Homo sapiens) [FGF7-p, chemically synthesized 19 amino acid peptide of FGF7, FGFR2IIIb agonist]",weak and patchy; also recorded: Light/patchy (similar to control),"Less, but still significant",strong,delayed,absent,absent,robust,no signs of protection against urothelial apoptosis,intact and non-apoptotic urothelial cells,almost no urothelial injury,strong signal throughout the urothelium,much stronger staining,strong staining,many regions with almost no (middle panel) or minimal urothelial apoptosis,,
B1,,,,≤ 15 hours,,,,,,,,,,,≤ 30,48
